{"source": "patent US20240252795A1", "about": "“INGESTIBLE DEVICE FOR DELIVERY OF THERAPEUTIC AGENT TO THE GASTROINTESTINAL TRACT” (BIORA THERAPEUTICS, INC., priority 2018, published 2024)", "assay": "Non-reducing SDS-PAGE protein profile of jet-dispensed adalimumab (drug structure)", "assay_type": "physicochemical", "description": "The purpose of this study was to evaluate the effects that nozzle geometry and delivery pressure have on drug structure when the drug is dispensed from a jet delivery device using different delivery pressures and nozzle sizes. Structural changes in the jet-delivered drug could potentially result in compromised functioning of the drug in vitro.\nThe drug (adalimumab drug substance (DS)) was loaded into the simulated capsule jet delivery device and ejected using different pressures and nozzle geometries.\nThe resulting protein concentrations were obtained using an extinction coefficient of 1.4 and Gen5 version 3.03.14 program. The samples were then diluted and the protein profiles were analyzed using non-reducing SDS-PAGE. Protein banding patterns of the dispensed samples were compared to that of the unmanipulated drug and the drug artificially damaged (enzymatically degraded) via the papain in a commercial Fab fragmentation kit (Pierce™ Fab Preparation Kit).\nFor gel analysis, protein was mixed with non-reducing sample buffer. Samples were not heated. 5 μg of samples and controls were loaded per lane of a SDS-PAGE gel (4% Acrylamide-Bis stacking, 12% resolving; see Table 26). The gel was electrophoresed at 195 V and stained in R-250 Coomassie Blue dye.", "data": [{"substance": "adalimumab", "values": [{"measurement": "protein banding pattern, non-reducing SDS-PAGE", "setting": "5 μg per lane, jet-delivered samples versus unmanipulated drug and papain-degraded controls", "value": "same banding pattern as the unmanipulated drug"}, {"measurement": "structural changes after dispensing", "setting": "dispensing pressures and nozzle sizes employed", "value": "No structural changes were evident"}]}]}
